In patent US20230405140A1, “ANTI-CD56 ANTIBODY-DRUG CONJUGATES AND THEIR USE IN THERAPY” (MCSAF INSIDE ONCOLOGY, priority 2020, published 2023):

Legend:
neutrophils = assay: Killing effect on neutrophils (Annexin V / 7-AAD flow cytometry); assay type: cell-based, human; conditions: after 4 h of incubation; CD56 negative cells; at high concentration
From the text: The neutrophils were isolated directly from whole blood of healthy adult volunteers at the Etablissement Français du Sang, according to institutional research protection guidelines agreement N° CA-REC-2019-188, Centre Val de Loire, France, by negative selection, using the kit (MACSxpress® Whole Blood Neutrophil Isolation Kit, MiltenyBiotech™). The neutrophils were used directly following their isolation and then resuspended in HBSS buffer (1X) (Gibco 15266355), at 1×10^6 cells/mL.
(§1) 5% of CO2. […] All products were tested after 4 days treatment on NK cells and 4 h on monocytes and neutrophils.

[1] = tested on: solid tumors expressing CD56; conditions: several phase I studies; in words; cited from earlier work
WaGa CRISPR CD56 = assay: XTT assay, ADC-mediated cytotoxicity; assay type: cell-based; conditions: 4 days, CD56− cells, read-out: WaGa CRISPR CD56 n = 3 IC50
Method: (§2) To evaluate cell viability and cellular metabolic activity, XTT assays were performed according to standard protocols. WaGa, PeTa, H69, H209, H660 cell lines were plated in 3 replicates in a 96-well plate with 5.10^4 cells/well. […] Untreated cells were used as viability reference. Cells treated with 1% Triton X100 were used as cell death positive control. After 4 days, 25 μL XTT reagent at 1 mg/mL (Alfa Aesar, thermo Fisher) with N-methyl dibenzopyrazine methyl sulfate (PMS) activator (25 μM) was added per well and absorbance was measured at 450 nm after 4 h incubation. Absorbance at 620 nm was used as a reference. Three independent experiments have been performed.

PeTa = assay: XTT assay, ADC-mediated cytotoxicity; assay type: cell-based; conditions: 4 days, read-out: PeTa n = 3 IC50
Method: as §2

H69 = assay: XTT assay, ADC-mediated cytotoxicity; assay type: cell-based; conditions: 4 days, read-out: H69 n = 3 IC50
Method: as §2

H209 = assay: XTT assay, ADC-mediated cytotoxicity; assay type: cell-based; conditions: 4 days, read-out: H209 n = 3 IC50
Method: as §2

WaGa = assay: XTT assay, ADC-mediated cytotoxicity; assay type: cell-based; conditions: 4 days, read-out: WaGa n = 3 IC50
Method: as §2

MKL-1 CRISPR CD56 = assay: XTT assay, ADC-mediated cytotoxicity; assay type: cell-based; conditions: 4 days, CD56− cells, read-out: MKL-1 CRISPR CD56 n = 3 IC50
primary NK cells = assay: Killing effect on primary NK cells (Annexin V / 7-AAD flow cytometry); assay type: cell-based, human; conditions: for Killing effect on primary NK cells (ADCC): after 4 h of incubation, in words; for Killing effect on primary NK cells: after 4 days of incubation
Method: (§3) Primary natural killer cells (NK) and monocytes were obtained from blood of healthy adult volunteers at the Etablissement Français du Sang, according to institutional research protection guidelines agreement N° CA-REC-2019-188, Centre Val de Loire, France. Ficoll density centrifugation step (Eurobio) was performed to isolate peripheral blood mononuclear cells (PBMC).
NK cells were isolated from PBMC by negative selection (NK cell isolation kit human, Miltenyi Biotec) with purity higher than 95%. NK cells were cultured for up to 36 h in RPMI 1640 supplemented with 10% FCS, 1% penicillin and streptomycin, 1% L-glutamine and 100 UI/mL IL-2 at 37° C., 5% CO2 at 1.10^6 cells/mL.

[2] = tested on: CD56− cells (CRISPR-MCC cell lines WaGa and MKL-1); assay: XTT assay, summary over CD56- CRISPR-MCC cell lines; assay type: cell-based; conditions: at high doses; in words
Method: as §2

[3] = tested on: small cell lung carcinoma; conditions: phase II, in combination with chemotherapy (cisplatin-etoposide); in words; cited from earlier work
WaGa xenograft = assay: Efficacy in vivo, WaGa xenograft, ADC 5 mg/kg twice a week; set-up: species or system NOD/SCID mice; conditions: 5 mg/kg IV twice a week; day 30
Method: Xenograft mice model: eighteen 7-week-old females NOD/SCID (Janvier Labs) mice were maintained under aseptic conditions. All animal procedures were approved by local ethics committee (Apafis #26772-2020072715262737 v2). WaGa cell line was used for tumor induction, as previously described in [9]. Mice received one subcutaneous injection of 1.10^7 WaGa cells with 10% matrigel on the back. General state and weight were monitored twice a week during the procedure. Tumor volume was measured with a caliper and tumor volume was calculated according to the formula: π/6×width×length×height. […] Mice were sacrificed 30 days after inclusion or when reaching one predefined endpoint (tumor ulceration, weight loss >20%, or prostration). Tumors, heart, lungs, spleen, and liver were removed for macroscopic examination. After dissection, tumor weight and volume were assessed. To detect metastatic spread and potential toxicity of ADCs, whole tumors and organs (heart, lungs, spleen, and liver), were formalin-fixed and paraffin embedded for microscopic evaluation to evaluate architecture changes, inflammatory infiltrate, necrosis, vascular changes, fibrosis and liver steatosis.

monocytes = assay: Killing effect on monocytes (Annexin V / 7-AAD flow cytometry); assay type: cell-based, human; conditions: after 4 h of incubation; in words
Method: as §3
Monocytes were isolated from PBMC by positive selection using anti-CD14 MicroBeads (Miltenyi Biotec) according to manufacturer recommendations. Monocytes were cultured in serum-free X-VIVO-15 medium (Lonza) at 1.10^6 cells/mL.
as §1

[4] = tested on: CD56+ cell lines (WaGa, PeTa, MKL-1, H69, H209, H660); assay: Flow cytometry binding of Alexa Fluor 750 labelled antibodies, CD56+ cell lines; conditions: 4° C., 30 minutes, in words
Method: (§4) Binding levels of L and mAb-003 have been evaluated on several tumor cell lines: MCC (WaGa, PeTa, MKL-1), SCLC (H69, H209) and prostate cancers (H660) as well as WaGa, PeTa and MKL-1 CD56-knocked out using CRISPR technology.
(§5) The L and mAb-003 were labelled with Alexa Fluor 750 (Alexa Fluor 750 Protein Labelling Kit, Invitrogen) to allow their detection by flow cytometry. The labelled antibodies were incubated with 1.10^5 cells at 4° C. for 30 minutes, then cells were washed twice with PBS supplemented with 1% FCS, and the binding was analysed by Flow cytometry on Cytoflex.

[5] = tested on: CD56− cells (CRISPR WaGa, PeTa, MKL-1); assay: Flow cytometry binding of Alexa Fluor 750 labelled antibodies, CD56- CRISPR cell lines; conditions: 4° C., 30 minutes, in words
Method: as §4, §5

B1: LM: Lorvotuzumab Mertansine, anti-CD56 ADC coupled to mertansine (DM1) (conjugate, chains of the INN, looked up)
VH: QVQLVESGGGVVQPGRSLRLSCAASGFTFSSFGMHWVRQAPGKGLEWVAYISSGSFTIYYADSVKGRFTISRDNSKNTLYLQMNSLRAEDTAVYYCARMRKGYAMDYWGQGTLVTVSS
VL: DVVMTQSPLSLPVTLGQPASISCRSSQIIIHSDGNTYLEWFQQRPGQSPRRLIYKVSNRFSGVPDRFSGSGSGTDFTLKISRVEAEDVGVYYCFQGSHVPHTFGQGTKVEIK
modifications: mertansine (DM1)
- Killing effect towards neutrophils (neutrophils): around 15%
- Tolerance [1]: acceptable tolerance
- IC50 (WaGa CRISPR CD56): 75.6 nM
- IC50 (PeTa): 26.9 nM
- IC50 (H69): 62.6 nM
- IC50 (H209): 100 nM
- IC50 (WaGa): 75.6 nM
- IC50 (MKL-1 CRISPR CD56): 74.1 nM
- Killing effect on primary NK cells (ADCC) (primary NK cells): ADCC killing effect was observed
- Cytotoxicity on CD56− cells [2]: nonspecific cytotoxicity
- Survival benefit [3]: did not demonstrate any survival benefit

B2: MF-L-MMAE: L conjugated to MMAE with 6-(2,6-bis(bromomethyl)pyridin-4-yl)amido-N-hexanamide-valine-citrulline-p-aminobenzoyl carbamate (conjugate, chains of the INN, looked up)
VH: B1 VH
VL: B1 VL
modifications: MMAE via val-cit PAB linker
notes: L conjugated to MMAE with 6-(2,6-bis(bromomethyl)pyridin-4-yl)amido-N-hexanamide-valine-citrulline-p-aminobenzoyl carbamate
- Mean end tumor weight (WaGa xenograft): 0.08 g

B3: LM-002: Deglycosylated Lorvotuzumab Mertansine: treated with PNGase F to remove the glycosylation (conjugate, chains of the INN, looked up)
VH: B1 VH
VL: B1 VL
modifications: mertansine; deglycosylated
notes: Deglycosylated Lorvotuzumab Mertansine: treated with PNGase F to remove the glycosylation
- Killing effect on monocytes (monocytes): negligible killing effect

B4: L-002: Deglycosylated Lorvotuzumab: treated with PNGase F to remove the glycosylation at Asn297 (antibody, chains of the INN, looked up, V domains shown)
VH: B1 VH
VL: B1 VL
modifications: deglycosylated with PNGase F
notes: Deglycosylated Lorvotuzumab: treated with PNGase F to remove the glycosylation at Asn297
- Killing effect on primary NK cells (primary NK cells): 20%

B5: L: Lorvotuzumab (antibody, chains of the INN, looked up, V domains shown)
VH: B1 VH
VL: B1 VL
- Killing effect towards neutrophils (neutrophils): about 15%
- Killing effect on primary NK cells (ADCC) (primary NK cells): ADCC killing effect was observed
- Killing effect on primary NK cells (primary NK cells): 40%
- Binding to CD56+ cells [4]: lower binding level
- Binding to CD56− cells (CRISPR cells) [5]: binding to CD56− cells
